T1: EsCas13d, nuclease-dead (Eubacterium siraeum, UniProt B0MS50, R295A;H300A;R849A;H854A)
T1 sequence: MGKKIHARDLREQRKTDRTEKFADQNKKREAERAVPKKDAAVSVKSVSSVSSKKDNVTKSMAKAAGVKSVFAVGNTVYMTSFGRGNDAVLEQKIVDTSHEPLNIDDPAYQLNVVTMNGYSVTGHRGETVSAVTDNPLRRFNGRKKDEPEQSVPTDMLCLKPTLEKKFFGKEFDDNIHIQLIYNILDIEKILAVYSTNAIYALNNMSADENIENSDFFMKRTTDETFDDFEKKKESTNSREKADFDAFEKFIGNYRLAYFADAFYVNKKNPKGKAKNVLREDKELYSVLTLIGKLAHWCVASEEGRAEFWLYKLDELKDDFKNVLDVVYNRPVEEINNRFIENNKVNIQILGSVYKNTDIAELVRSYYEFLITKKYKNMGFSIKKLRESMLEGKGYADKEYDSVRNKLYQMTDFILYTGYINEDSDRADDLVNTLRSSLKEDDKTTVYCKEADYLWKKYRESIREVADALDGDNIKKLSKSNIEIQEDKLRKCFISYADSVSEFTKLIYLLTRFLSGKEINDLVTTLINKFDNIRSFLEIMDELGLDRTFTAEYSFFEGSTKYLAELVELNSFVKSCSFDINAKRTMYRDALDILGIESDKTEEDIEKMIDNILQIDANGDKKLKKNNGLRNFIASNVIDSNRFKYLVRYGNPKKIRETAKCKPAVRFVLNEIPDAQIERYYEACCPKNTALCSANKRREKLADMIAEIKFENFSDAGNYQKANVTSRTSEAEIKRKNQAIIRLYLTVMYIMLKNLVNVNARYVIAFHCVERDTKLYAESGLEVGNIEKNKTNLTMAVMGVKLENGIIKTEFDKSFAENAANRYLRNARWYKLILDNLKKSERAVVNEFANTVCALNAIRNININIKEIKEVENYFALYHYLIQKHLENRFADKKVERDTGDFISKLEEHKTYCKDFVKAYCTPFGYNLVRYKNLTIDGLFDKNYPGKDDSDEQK


These binders were tested against T1, EsCas13d, nuclease-dead (assay: crRNA (strand 1, pre-loaded); Mg2+; 40 mM Tris-HCl pH 7.5, 150 mM NaCl, 6 mM MgCl2, 1 mM DTT, 0.1% Tween-20, 0.2 mg/ml BSA; 25 C; 10 min per concentration, then washed). Settings: tags: His6-TwinStrep-SUMO cleaved; N-terminal SNAP kept (SNAP-Surface 488); label: 3' end held by stalled T7 RNA polymerase.

Binder | Kd
target 1 insU 3' of 15,insC 3' of 8 (mixed) RNA 1: CACCCGUGCAAAAAUGCAGGGGUCUAAAACUGAGCGGAUAACCUCUCUAUGG RNA 2: GGGAAUGGAUCCACAUCUACGAAUUCGUACCAUAGAGUAGGUUAUCCCGCUCACCGAGAUCGGAAGAGCACACGU | 42 ± 6 nM
target 1 A20U,C22U (mixed) RNA 1: CACCCGUGCAAAAAUGCAGGGGUCUAAAACUGAGCGGAUAACCUCUCUAUGG RNA 2: GGGAAUGGAUCCACAUCUACGAAUUCGUAUCUUAGAGAGGUUAUCCGCUCACCGAGAUCGGAAGAGCACACGU | 45 ± 8 nM
target 1 C6G,U19G (mixed) RNA 1: CACCCGUGCAAAAAUGCAGGGGUCUAAAACUGAGCGGAUAACCUCUCUAUGG RNA 2: GGGAAUGGAUCCACAUCUACGAAUUCGUACCAGAGAGAGGUUAUCGGCUCACCGAGAUCGGAAGAGCACACGU | 42 ± 5 nM
target 1 G5C,A16C (mixed) RNA 1: CACCCGUGCAAAAAUGCAGGGGUCUAAAACUGAGCGGAUAACCUCUCUAUGG RNA 2: GGGAAUGGAUCCACAUCUACGAAUUCGUACCAUAGCGAGGUUAUCCCCUCACCGAGAUCGGAAGAGCACACGU | 88 ± 15 nM
target 1 U3A,A18C (mixed) RNA 1: CACCCGUGCAAAAAUGCAGGGGUCUAAAACUGAGCGGAUAACCUCUCUAUGG RNA 2: GGGAAUGGAUCCACAUCUACGAAUUCGUACCAUCGAGAGGUUAUCCGCACACCGAGAUCGGAAGAGCACACGU | 50 ± 6 nM
target 1 insG 3' of 2,insC 3' of 1 (mixed) RNA 1: CACCCGUGCAAAAAUGCAGGGGUCUAAAACUGAGCGGAUAACCUCUCUAUGG RNA 2: GGGAAUGGAUCCACAUCUACGAAUUCGUACCAUAGAGAGGUUAUCCGCUCGACCCGAGAUCGGAAGAGCACACGU | 10.4 ± 1.3 nM
target 1 G13A,A20C (mixed) RNA 1: CACCCGUGCAAAAAUGCAGGGGUCUAAAACUGAGCGGAUAACCUCUCUAUGG RNA 2: GGGAAUGGAUCCACAUCUACGAAUUCGUACCCUAGAGAAGUUAUCCGCUCACCGAGAUCGGAAGAGCACACGU | 75 ± 29 nM
target 1 insG 3' of 11,insA 3' of 7 (mixed) RNA 1: CACCCGUGCAAAAAUGCAGGGGUCUAAAACUGAGCGGAUAACCUCUCUAUGG RNA 2: GGGAAUGGAUCCACAUCUACGAAUUCGUACCAUAGAGAGGUGUAUCACGCUCACCGAGAUCGGAAGAGCACACGU | 21.7 ± 1.8 nM
target 1 insC 3' of 19,insG 3' of 7 (mixed) RNA 1: CACCCGUGCAAAAAUGCAGGGGUCUAAAACUGAGCGGAUAACCUCUCUAUGG RNA 2: GGGAAUGGAUCCACAUCUACGAAUUCGUACCAUCAGAGAGGUUAUCGCGCUCACCGAGAUCGGAAGAGCACACGU | 24.1 ± 1.3 nM
target 1 insU 3' of 21,insU 3' of 1 (mixed) RNA 1: CACCCGUGCAAAAAUGCAGGGGUCUAAAACUGAGCGGAUAACCUCUCUAUGG RNA 2: GGGAAUGGAUCCACAUCUACGAAUUCGUACCUAUAGAGAGGUUAUCCGCUCAUCCGAGAUCGGAAGAGCACACGU | 24.2 ± 1.8 nM
target 1 insG 3' of 14,insG 3' of 4 (mixed) RNA 1: CACCCGUGCAAAAAUGCAGGGGUCUAAAACUGAGCGGAUAACCUCUCUAUGG RNA 2: GGGAAUGGAUCCACAUCUACGAAUUCGUACCAUAGAGAGGGUUAUCCGCGUCACCGAGAUCGGAAGAGCACACGU | 7.5 ± 0.8 nM
target 1 C2U,G13U (mixed) RNA 1: CACCCGUGCAAAAAUGCAGGGGUCUAAAACUGAGCGGAUAACCUCUCUAUGG RNA 2: GGGAAUGGAUCCACAUCUACGAAUUCGUACCAUAGAGAUGUUAUCCGCUUACCGAGAUCGGAAGAGCACACGU | 68 ± 20 nM
target 1 insC 3' of 10,insG 3' of 7 (mixed) RNA 1: CACCCGUGCAAAAAUGCAGGGGUCUAAAACUGAGCGGAUAACCUCUCUAUGG RNA 2: GGGAAUGGAUCCACAUCUACGAAUUCGUACCAUAGAGAGGUUCAUCGCGCUCACCGAGAUCGGAAGAGCACACGU | 16.8 ± 1.4 nM
target 1 complement block 7-13 (mixed) RNA 1: CACCCGUGCAAAAAUGCAGGGGUCUAAAACUGAGCGGAUAACCUCUCUAUGG RNA 2: GGGAAUGGAUCCACAUCUACGAAUUCGUACCAUAGAGACCAAUAGCGCUCACCGAGAUCGGAAGAGCACACGU | 79 ± 16 nM
target 1 insA 3' of 21,insG 3' of 8 (mixed) RNA 1: CACCCGUGCAAAAAUGCAGGGGUCUAAAACUGAGCGGAUAACCUCUCUAUGG RNA 2: GGGAAUGGAUCCACAUCUACGAAUUCGUACCAAUAGAGAGGUUAUGCCGCUCACCGAGAUCGGAAGAGCACACGU | 29.8 ± 2.8 nM
target 1 insU 3' of 22,insA 3' of 15 (mixed) RNA 1: CACCCGUGCAAAAAUGCAGGGGUCUAAAACUGAGCGGAUAACCUCUCUAUGG RNA 2: GGGAAUGGAUCCACAUCUACGAAUUCGUACUCAUAGAGAAGGUUAUCCGCUCACCGAGAUCGGAAGAGCACACGU | 13.7 ± 3.1 nM
target 1 insG 3' of 20,insG 3' of 7 (mixed) RNA 1: CACCCGUGCAAAAAUGCAGGGGUCUAAAACUGAGCGGAUAACCUCUCUAUGG RNA 2: GGGAAUGGAUCCACAUCUACGAAUUCGUACCAGUAGAGAGGUUAUCGCGCUCACCGAGAUCGGAAGAGCACACGU | 29 ± 5 nM
target 1 insA 3' of 13,insC 3' of 9 (mixed) RNA 1: CACCCGUGCAAAAAUGCAGGGGUCUAAAACUGAGCGGAUAACCUCUCUAUGG RNA 2: GGGAAUGGAUCCACAUCUACGAAUUCGUACCAUAGAGAGAGUUACUCCGCUCACCGAGAUCGGAAGAGCACACGU | 8 ± 0.4 nM
target 1 C7U,U10A (mixed) RNA 1: CACCCGUGCAAAAAUGCAGGGGUCUAAAACUGAGCGGAUAACCUCUCUAUGG RNA 2: GGGAAUGGAUCCACAUCUACGAAUUCGUACCAUAGAGAGGUAAUUCGCUCACCGAGAUCGGAAGAGCACACGU | 7.8 ± 0.4 nM
target 1 U3C,C6A (mixed) RNA 1: CACCCGUGCAAAAAUGCAGGGGUCUAAAACUGAGCGGAUAACCUCUCUAUGG RNA 2: GGGAAUGGAUCCACAUCUACGAAUUCGUACCAUAGAGAGGUUAUCAGCCCACCGAGAUCGGAAGAGCACACGU | 14.2 ± 1.5 nM
target 1 insA 3' of 19,insC 3' of 14 (mixed) RNA 1: CACCCGUGCAAAAAUGCAGGGGUCUAAAACUGAGCGGAUAACCUCUCUAUGG RNA 2: GGGAAUGGAUCCACAUCUACGAAUUCGUACCAUAAGAGACGGUUAUCCGCUCACCGAGAUCGGAAGAGCACACGU | ~70 nM
target 1 insG 3' of 22,insU 3' of 21 (mixed) RNA 1: CACCCGUGCAAAAAUGCAGGGGUCUAAAACUGAGCGGAUAACCUCUCUAUGG RNA 2: GGGAAUGGAUCCACAUCUACGAAUUCGUACGCUAUAGAGAGGUUAUCCGCUCACCGAGAUCGGAAGAGCACACGU | 30 ± 2.5 nM
target 1 del2,del9 (mixed) RNA 1: CACCCGUGCAAAAAUGCAGGGGUCUAAAACUGAGCGGAUAACCUCUCUAUGG RNA 2: GGGAAUGGAUCCACAUCUACGAAUUCGUACCAUAGAGAGGUUUCCGCUACCGAGAUCGGAAGAGCACACGU | 63 ± 9 nM
target 1 insU 3' of 14 (mixed) RNA 1: CACCCGUGCAAAAAUGCAGGGGUCUAAAACUGAGCGGAUAACCUCUCUAUGG RNA 2: GGGAAUGGAUCCACAUCUACGAAUUCGUACCAUAGAGAUGGUUAUCCGCUCACCGAGAUCGGAAGAGCACACGU | 38 ± 4 nM
target 1 insA 3' of 17,insG 3' of 11 (mixed) RNA 1: CACCCGUGCAAAAAUGCAGGGGUCUAAAACUGAGCGGAUAACCUCUCUAUGG RNA 2: GGGAAUGGAUCCACAUCUACGAAUUCGUACCAUAGAAGAGGUGUAUCCGCUCACCGAGAUCGGAAGAGCACACGU | 86 ± 21 nM
target 1 insA 3' of 21,insU 3' of 15 (mixed) RNA 1: CACCCGUGCAAAAAUGCAGGGGUCUAAAACUGAGCGGAUAACCUCUCUAUGG RNA 2: GGGAAUGGAUCCACAUCUACGAAUUCGUACCAAUAGAGUAGGUUAUCCGCUCACCGAGAUCGGAAGAGCACACGU | 31.6 ± 3.5 nM
target 1 insC 3' of 20,insU 3' of 17 (mixed) RNA 1: CACCCGUGCAAAAAUGCAGGGGUCUAAAACUGAGCGGAUAACCUCUCUAUGG RNA 2: GGGAAUGGAUCCACAUCUACGAAUUCGUACCACUAGUAGAGGUUAUCCGCUCACCGAGAUCGGAAGAGCACACGU | 16.9 ± 2.2 nM
target 1 U3A,C6G (mixed) RNA 1: CACCCGUGCAAAAAUGCAGGGGUCUAAAACUGAGCGGAUAACCUCUCUAUGG RNA 2: GGGAAUGGAUCCACAUCUACGAAUUCGUACCAUAGAGAGGUUAUCGGCACACCGAGAUCGGAAGAGCACACGU | 5.27 ± 0.15 nM
